Columns and labels:
[1] = target: human anti-HIV-1 (gp120 recognizing) antibody 2G12; test: cell-based or functional assay
[2] = target: human monoclonal anti-HIV-1 antibody 2F5 (isotype not stated in the assay); test: cell-based or functional assay
[3] = target: human monoclonal anti-HIV-1 antibody 2F5 (isotype not stated in the assay); test: competition ELISA: 50 ng/mL 3H6 preincubated with 31 ng/mL 2F5, then 2F5 binding to coated …
[4] = target: human monoclonal anti-HIV-1 antibody 2F5 (isotype not stated in the assay); test: competition ELISA: 500 ng/mL 3H6 preincubated with 31 ng/mL 2F5, then 2F5 binding to coated …

B1: murine monoclonal anti-idiotypic antibody (Ab2) 3H6 (antibody, V domains shown)
VH: GVQLQQSGPELVKTGASVKISCKASGYSFTDYFMHWVKQSHGKSLDWIGYINCYTGATNYSQKFKGKATFTVDTSSNTAYMQFNSLTSEDSAVYYCARTSIGYGSSPPFPYWGQGTLVTVSA
VL: ETTVTQSPASLSMSIGEKVTIRCITSTDIDDDMNWYQQKPGEPPRLLISDGNTLRPGVPSRFSSSGYGTDFVFTIENMLSEDVADYYCLQSDNLPYTFGGGTNLEIK
B1 gave a reduction of 2G12 (10 µg/mL) neutralization of HIV-1 NL4-3 [1] greater than 250 µg/mL, a depletion of 2F5 (10 µg/mL) neutralization of HIV-1 NL4-3 on AA-2 cells, p24 ELISA [2] of 3.9 µg/mL and a reduction of 2F5 (10 µg/mL) neutralization at 3.9 µg/mL 3H6 [2] of 95%. The reduction of the neutralizing capacity of 2F5 (10 µg/mL) at 1.9 µg/mL 3H6 [2] was 5%, the reduction of the OD [3] was 37% and the reduction of OD [4] was 83%.

Reference: patent publication US7625566
